Key:
Assay in all cases: Kinase Profiling Assay
Settings in all cases: 100 μM
Ros(h) = Ros(h) (Homo sapiens, UniProt P08922); format: biochemical
EphB1(h) = biological target: T1, EphB1(h) (Homo sapiens, UniProt P54762); format: biochemical
T1 sequence (P54762 18-984): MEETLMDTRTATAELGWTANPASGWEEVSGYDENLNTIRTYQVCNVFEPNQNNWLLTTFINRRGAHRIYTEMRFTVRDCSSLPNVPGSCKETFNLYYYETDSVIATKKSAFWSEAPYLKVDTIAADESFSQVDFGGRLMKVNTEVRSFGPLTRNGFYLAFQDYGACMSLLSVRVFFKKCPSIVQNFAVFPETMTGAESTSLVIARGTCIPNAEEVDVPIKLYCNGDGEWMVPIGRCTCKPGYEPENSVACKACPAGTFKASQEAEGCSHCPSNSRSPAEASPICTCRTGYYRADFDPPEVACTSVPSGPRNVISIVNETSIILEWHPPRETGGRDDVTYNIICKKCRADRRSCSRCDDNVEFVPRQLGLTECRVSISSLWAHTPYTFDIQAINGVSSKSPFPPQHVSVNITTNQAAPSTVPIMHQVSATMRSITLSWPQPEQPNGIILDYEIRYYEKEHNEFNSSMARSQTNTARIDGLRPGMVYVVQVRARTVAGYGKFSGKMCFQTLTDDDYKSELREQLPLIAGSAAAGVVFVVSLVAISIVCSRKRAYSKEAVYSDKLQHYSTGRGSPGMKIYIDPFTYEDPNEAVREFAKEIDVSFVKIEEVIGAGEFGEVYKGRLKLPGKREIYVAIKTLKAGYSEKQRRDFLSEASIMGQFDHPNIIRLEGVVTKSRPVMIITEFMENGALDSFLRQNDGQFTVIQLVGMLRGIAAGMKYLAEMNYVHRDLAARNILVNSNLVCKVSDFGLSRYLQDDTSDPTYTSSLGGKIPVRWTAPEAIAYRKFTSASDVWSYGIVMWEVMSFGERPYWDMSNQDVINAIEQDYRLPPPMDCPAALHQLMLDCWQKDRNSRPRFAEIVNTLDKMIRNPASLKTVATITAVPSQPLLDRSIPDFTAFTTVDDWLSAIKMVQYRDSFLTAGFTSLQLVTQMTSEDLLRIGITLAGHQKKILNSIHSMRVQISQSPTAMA

Txk(h) = biological target: T2, Txk(h) (Homo sapiens, UniProt P42681); format: biochemical
T2 sequence (P42681 1-527): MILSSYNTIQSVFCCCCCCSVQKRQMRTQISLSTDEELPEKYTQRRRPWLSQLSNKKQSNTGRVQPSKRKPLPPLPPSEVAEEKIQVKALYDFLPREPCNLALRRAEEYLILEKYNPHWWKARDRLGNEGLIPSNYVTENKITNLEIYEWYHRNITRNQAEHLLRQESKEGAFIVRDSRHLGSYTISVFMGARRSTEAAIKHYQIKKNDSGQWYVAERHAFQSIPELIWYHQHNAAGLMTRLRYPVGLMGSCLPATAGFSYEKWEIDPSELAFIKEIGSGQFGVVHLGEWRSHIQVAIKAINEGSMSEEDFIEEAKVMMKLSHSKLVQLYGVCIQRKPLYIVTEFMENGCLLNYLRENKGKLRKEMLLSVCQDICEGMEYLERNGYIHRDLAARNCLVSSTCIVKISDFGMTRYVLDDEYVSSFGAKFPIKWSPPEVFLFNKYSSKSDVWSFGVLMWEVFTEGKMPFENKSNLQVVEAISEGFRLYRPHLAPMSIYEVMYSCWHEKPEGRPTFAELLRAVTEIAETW

EphA2(h) = EphA2(h) (Homo sapiens, UniProt P29317); format: biochemical
Fer(h) = Fer(h) (Homo sapiens, UniProt P16591); format: biochemical
MLCK(h) = format: biochemical, human
DYRK2(h) = biological target: T3, DYRK2(h) (Homo sapiens, UniProt Q92630); format: biochemical
T3 sequence (Q92630 1-601): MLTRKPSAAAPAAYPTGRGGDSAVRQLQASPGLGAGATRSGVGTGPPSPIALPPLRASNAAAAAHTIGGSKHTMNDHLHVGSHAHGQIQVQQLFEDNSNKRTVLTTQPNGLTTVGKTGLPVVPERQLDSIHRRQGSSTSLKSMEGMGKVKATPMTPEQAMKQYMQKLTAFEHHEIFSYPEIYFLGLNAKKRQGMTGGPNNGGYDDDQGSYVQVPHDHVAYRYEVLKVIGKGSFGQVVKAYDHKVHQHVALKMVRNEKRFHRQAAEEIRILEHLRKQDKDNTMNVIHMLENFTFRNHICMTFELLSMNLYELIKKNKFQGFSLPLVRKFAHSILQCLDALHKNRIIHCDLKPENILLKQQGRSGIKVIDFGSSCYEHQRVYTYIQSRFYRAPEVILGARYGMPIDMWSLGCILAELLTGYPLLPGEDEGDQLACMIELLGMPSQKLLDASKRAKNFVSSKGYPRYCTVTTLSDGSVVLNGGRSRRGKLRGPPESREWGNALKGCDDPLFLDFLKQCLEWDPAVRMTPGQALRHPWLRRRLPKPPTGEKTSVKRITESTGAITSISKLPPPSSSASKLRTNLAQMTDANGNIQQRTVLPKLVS

ALK(h) = ALK(h) (Homo sapiens, UniProt Q9UM73); format: biochemical
WNK2(h) = WNK2(h) (Homo sapiens, UniProt Q9Y3S1); format: biochemical
Sequence of WNK2(h) (Q9Y3S1 whole entry): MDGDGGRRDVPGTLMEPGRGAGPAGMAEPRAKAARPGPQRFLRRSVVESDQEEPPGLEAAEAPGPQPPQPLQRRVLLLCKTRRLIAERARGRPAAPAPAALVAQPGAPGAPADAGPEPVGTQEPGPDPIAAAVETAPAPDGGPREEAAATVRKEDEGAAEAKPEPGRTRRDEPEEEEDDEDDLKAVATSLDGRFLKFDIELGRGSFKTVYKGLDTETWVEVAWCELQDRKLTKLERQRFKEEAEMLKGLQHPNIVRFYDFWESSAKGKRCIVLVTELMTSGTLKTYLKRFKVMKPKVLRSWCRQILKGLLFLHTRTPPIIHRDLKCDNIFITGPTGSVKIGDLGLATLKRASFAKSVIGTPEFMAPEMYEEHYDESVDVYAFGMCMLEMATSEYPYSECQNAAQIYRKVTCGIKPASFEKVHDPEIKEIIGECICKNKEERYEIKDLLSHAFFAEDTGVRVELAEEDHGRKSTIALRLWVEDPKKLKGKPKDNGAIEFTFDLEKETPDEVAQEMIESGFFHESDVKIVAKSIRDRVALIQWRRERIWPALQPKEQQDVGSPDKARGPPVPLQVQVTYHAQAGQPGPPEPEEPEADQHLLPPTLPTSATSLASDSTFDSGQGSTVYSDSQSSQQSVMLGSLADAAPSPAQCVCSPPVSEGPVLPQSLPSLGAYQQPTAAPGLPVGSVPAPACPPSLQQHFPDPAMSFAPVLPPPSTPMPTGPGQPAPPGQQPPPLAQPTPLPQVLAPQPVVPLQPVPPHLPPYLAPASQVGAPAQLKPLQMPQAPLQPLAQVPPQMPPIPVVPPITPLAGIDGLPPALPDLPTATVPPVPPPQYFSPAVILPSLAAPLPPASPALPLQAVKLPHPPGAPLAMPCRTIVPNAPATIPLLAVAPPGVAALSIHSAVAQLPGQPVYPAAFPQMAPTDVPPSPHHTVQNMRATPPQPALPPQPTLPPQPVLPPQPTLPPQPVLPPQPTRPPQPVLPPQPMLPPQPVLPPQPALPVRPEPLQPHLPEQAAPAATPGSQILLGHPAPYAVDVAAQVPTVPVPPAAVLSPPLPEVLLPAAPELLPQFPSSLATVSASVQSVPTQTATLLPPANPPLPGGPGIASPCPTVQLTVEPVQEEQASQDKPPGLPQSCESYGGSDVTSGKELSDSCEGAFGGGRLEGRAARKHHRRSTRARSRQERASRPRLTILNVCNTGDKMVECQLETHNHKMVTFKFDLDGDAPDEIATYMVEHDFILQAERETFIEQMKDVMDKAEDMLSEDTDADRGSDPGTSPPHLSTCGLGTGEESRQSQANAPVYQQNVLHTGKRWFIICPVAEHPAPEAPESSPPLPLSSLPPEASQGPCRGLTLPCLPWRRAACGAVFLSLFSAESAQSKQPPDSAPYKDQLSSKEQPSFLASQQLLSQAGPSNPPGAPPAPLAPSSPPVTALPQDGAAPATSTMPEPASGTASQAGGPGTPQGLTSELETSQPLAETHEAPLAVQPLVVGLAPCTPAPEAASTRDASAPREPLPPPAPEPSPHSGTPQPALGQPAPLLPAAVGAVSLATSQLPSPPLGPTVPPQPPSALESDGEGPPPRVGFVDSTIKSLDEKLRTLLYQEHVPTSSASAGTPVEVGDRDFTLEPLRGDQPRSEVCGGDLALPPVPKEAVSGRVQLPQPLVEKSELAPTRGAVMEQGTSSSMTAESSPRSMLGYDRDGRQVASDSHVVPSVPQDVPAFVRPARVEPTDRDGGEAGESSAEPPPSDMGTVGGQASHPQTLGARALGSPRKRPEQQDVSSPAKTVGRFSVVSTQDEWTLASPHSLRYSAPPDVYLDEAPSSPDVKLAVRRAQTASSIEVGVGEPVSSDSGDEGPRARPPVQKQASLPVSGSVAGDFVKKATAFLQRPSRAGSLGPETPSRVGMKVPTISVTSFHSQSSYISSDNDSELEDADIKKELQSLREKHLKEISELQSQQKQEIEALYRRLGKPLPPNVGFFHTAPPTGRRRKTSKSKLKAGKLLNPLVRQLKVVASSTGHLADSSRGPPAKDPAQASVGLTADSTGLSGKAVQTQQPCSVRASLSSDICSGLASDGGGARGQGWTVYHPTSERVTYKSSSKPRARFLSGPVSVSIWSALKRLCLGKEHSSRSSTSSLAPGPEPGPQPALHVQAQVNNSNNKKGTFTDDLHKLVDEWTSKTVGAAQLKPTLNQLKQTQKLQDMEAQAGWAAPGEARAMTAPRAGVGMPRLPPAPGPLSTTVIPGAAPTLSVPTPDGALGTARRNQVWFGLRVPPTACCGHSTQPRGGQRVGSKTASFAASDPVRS

NEK2(h) = biological target: T4, NEK2(h) (Homo sapiens, UniProt P51955); format: biochemical
T4 sequence (P51955 1-445): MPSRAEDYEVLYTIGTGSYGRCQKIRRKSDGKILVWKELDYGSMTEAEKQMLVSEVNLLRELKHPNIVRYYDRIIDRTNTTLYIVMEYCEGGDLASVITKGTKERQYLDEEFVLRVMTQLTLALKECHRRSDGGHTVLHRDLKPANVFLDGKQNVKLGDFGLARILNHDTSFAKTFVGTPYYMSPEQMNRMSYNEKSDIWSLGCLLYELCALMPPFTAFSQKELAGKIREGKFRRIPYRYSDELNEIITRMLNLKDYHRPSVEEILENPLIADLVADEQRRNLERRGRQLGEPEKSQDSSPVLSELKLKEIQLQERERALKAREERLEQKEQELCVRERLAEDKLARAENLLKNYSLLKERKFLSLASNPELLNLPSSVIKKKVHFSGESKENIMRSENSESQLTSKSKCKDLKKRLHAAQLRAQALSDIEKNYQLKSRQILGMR

Sequence of Ros(h) (P08922 28-2347): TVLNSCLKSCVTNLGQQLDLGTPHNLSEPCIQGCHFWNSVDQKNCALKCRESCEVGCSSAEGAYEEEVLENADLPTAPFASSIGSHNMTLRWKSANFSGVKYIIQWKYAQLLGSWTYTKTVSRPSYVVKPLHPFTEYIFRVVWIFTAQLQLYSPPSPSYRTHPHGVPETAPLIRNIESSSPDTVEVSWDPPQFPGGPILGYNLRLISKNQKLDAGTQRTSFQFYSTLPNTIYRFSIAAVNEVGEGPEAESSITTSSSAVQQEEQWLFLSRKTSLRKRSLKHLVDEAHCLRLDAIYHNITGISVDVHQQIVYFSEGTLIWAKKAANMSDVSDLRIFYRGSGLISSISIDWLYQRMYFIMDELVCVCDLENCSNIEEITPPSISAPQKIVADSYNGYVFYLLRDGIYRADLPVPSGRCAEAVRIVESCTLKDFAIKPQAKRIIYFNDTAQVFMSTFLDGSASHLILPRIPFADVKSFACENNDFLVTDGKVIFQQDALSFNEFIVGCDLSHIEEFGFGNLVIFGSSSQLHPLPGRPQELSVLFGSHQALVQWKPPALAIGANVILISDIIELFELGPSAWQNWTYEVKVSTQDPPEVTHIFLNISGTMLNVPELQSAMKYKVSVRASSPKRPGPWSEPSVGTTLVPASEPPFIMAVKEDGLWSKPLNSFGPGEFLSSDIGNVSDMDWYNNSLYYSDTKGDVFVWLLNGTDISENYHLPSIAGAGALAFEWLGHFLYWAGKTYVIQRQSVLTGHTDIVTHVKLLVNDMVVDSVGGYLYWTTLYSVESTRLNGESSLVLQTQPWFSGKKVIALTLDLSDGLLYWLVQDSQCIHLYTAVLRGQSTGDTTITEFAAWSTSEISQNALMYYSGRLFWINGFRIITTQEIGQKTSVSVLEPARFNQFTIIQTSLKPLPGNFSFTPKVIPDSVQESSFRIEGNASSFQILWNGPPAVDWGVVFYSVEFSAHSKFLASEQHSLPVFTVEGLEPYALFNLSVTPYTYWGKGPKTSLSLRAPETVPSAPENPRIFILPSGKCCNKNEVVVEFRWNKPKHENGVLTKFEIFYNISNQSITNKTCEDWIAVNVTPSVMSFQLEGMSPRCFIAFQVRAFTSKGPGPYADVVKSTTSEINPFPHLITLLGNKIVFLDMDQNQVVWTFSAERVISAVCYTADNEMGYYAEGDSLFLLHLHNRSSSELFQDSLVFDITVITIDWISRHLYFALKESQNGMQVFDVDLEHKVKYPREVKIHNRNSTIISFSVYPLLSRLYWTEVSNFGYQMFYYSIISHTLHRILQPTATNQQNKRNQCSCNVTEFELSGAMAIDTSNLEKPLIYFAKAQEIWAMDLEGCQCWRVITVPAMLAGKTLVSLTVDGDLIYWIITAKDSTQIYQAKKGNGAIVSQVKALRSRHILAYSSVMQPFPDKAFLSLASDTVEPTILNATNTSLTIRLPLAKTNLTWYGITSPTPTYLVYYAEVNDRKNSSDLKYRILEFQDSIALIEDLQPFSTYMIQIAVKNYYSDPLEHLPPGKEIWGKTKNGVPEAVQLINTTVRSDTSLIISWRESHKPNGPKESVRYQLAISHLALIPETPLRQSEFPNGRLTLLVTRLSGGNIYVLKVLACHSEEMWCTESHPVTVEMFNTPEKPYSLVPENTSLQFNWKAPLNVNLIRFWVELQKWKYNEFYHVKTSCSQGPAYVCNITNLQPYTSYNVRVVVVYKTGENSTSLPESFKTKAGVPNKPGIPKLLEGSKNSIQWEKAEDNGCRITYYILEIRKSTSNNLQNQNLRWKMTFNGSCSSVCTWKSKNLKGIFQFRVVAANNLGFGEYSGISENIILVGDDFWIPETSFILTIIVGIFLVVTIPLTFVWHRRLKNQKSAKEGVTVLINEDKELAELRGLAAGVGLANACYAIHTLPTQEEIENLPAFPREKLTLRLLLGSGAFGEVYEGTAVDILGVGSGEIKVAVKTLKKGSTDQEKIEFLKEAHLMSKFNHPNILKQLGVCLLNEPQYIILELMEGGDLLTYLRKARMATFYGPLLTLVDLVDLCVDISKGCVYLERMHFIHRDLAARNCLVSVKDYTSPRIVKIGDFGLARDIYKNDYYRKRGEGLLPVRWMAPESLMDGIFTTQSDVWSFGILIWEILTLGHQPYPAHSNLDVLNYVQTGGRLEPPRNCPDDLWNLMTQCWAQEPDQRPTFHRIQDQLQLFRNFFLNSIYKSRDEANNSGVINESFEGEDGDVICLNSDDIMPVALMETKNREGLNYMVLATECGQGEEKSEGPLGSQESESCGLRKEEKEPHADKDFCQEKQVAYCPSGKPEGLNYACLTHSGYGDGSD

Row | Sequence | % activity (Ros(h)) [%] | % activity (EphB1(h)) [%] | % activity (Txk(h)) [%] | % activity (EphA2(h)) [%] | % activity (Fer(h)) [%] | % activity (MLCK(h)) [%] | % activity (DYRK2(h)) [%] | % activity (ALK(h)) [%] | % activity (WNK2(h)) [%] | % activity (NEK2(h)) [%]
1 | FAKLAARLYRKALARQLGVAA [MMI-0300] | 95 | 44 | 48 | 31 | 130 | 2 | 155 | 19 | 64 | 78
2 | HRRIKAWLKKIKALARQLGVAA [MMI-0500] | 150 | 37 | 10 | – | 196 | 0 | 127 | 12 | 8 | 0
3 | KAFAKLAARLYRKALARQLGVAA [MMI-0400] | 99 | 58 | 37 | 17 | 108 | 1 | 195 | 16 | 54 | 61
4 | YARAAARQARAKALNRQLGVA [MMI-0200] | 86 | 95 | 98 | 95 | 101 | 103 | 142 | 95 | 94 | 97
